Data reported in PMC6123492, “Structural and biochemical insights into small RNA 3′ end trimming by Arabidopsis SDN1”.

Experiments:
SDN1 wild type [1] = target: T1, SDN1 wild type (Arabidopsis thaliana, UniProt A3KPE8 2-409); assay: EMSA; no Mg2+; Kd,app in µM range, value only in figure; EMSA: 50 mM Tris pH 8.0, 100 mM NaCl, 1 mM DTT, no Mg2+, 2 nM RNA, on ice 30 min, 8% native PAGE in 0.5x TBE; NMR: 50 mM Na2HPO4 pH 7.4, 100 mM NaCl, 10% D2O; settings: protein: recombinant; tags: His-SUMO tag removed; label: 5' 32P; single strand
T1 sequence: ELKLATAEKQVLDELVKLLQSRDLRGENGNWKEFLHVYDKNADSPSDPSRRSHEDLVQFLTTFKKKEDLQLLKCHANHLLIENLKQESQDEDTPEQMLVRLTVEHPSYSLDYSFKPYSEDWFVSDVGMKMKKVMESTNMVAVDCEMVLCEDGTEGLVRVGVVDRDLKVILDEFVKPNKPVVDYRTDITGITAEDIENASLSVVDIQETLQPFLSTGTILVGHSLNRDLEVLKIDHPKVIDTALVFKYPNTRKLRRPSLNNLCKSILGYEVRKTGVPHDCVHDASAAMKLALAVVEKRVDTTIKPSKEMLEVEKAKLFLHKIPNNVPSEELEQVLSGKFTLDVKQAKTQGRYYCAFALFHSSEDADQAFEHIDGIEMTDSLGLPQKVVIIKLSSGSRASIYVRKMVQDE

SDN1 wild type [2] = target: T1, SDN1 wild type; assay: UV crosslinking (5-iodoU, 312 nm); EMSA: 50 mM Tris pH 8.0, 100 mM NaCl, 1 mM DTT, no Mg2+, 2 nM RNA, on ice 30 min, 8% native PAGE in 0.5x TBE; NMR: 50 mM Na2HPO4 pH 7.4, 100 mM NaCl, 10% D2O; settings: protein: recombinant, tags: His-SUMO tag removed
SDN1 ΔC = target: T2, SDN1 ΔC (Arabidopsis thaliana, UniProt A3KPE8 2-302); assay: as above; settings: protein: recombinant, tags: His-SUMO tag removed
T2 sequence: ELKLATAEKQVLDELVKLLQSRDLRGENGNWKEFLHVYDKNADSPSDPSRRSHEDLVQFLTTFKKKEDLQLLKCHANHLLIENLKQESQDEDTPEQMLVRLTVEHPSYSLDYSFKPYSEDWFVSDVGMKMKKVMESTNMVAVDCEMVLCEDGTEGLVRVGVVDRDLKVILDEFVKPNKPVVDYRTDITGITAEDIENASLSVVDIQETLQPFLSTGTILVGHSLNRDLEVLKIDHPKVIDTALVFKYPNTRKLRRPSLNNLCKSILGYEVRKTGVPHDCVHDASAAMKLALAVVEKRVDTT

SDN1 RRM (NMR) = target: T3, SDN1 RRM (NMR) (Arabidopsis thaliana, UniProt A3KPE8 305-409); assay: NMR titration; EMSA: 50 mM Tris pH 8.0, 100 mM NaCl, 1 mM DTT, no Mg2+, 2 nM RNA, on ice 30 min, 8% native PAGE in 0.5x TBE; NMR: 50 mM Na2HPO4 pH 7.4, 100 mM NaCl, 10% D2O; settings: protein: recombinant; tags: His-SUMO tag removed; 15N-labeled; single strand
T3 sequence: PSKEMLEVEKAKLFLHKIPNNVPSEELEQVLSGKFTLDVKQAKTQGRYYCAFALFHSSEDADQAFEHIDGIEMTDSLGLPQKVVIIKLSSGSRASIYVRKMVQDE

SDN1 wild type [3] = target: T1, SDN1 wild type; assay: crystal structure; 2 Mg2+; 9 of 10 nt seen, 2.8 Å; EMSA: 50 mM Tris pH 8.0, 100 mM NaCl, 1 mM DTT, no Mg2+, 2 nM RNA, on ice 30 min, 8% native PAGE in 0.5x TBE; NMR: 50 mM Na2HPO4 pH 7.4, 100 mM NaCl, 10% D2O; settings: protein: recombinant; tags: His-SUMO tag removed; single strand
[4] = label: 5' 32P on target strand, unpaired miR166 3' end (T6-type), target 3' overhang 4 nt

UUCGCUUGCAGAGAGAAAUCAC (ssRNA) [miR173 (22 nt RNA)]: binds (SDN1 wild type [1]).

B1: miR166:3'-IUU (dsRNA)
RNA 1: UCGGACCAGGCUUCAUCCCCC
RNA 2: GAUUCCCUUGAAGCUUGGUCCGGAUUA
modifications: 5-iodoU at 25,26 of strand 2
B1: binds (SDN1 wild type [2]; [4]); binds (SDN1 ΔC; [4]).

AGCCCAUUAG (ssRNA) [10 nt ssRNA (crystal, NMR)]: binds (SDN1 RRM (NMR)); binds (SDN1 wild type [3]).

GAUUCCCUUGAAGCUUGGUCCGGAUUA (ssRNA, 5-iodoU at 25,26) [3'-IUU RNA]: binds (SDN1 wild type [2]; label: 32P, single strand); binds (SDN1 ΔC; label: 32P, single strand).

GAUUCCCUUGAAGCUUGGUCCGGAUUA (ssRNA, 5-iodoU at 15,16) [M-IUU RNA]: binds (SDN1 wild type [2]; label: 32P, single strand).

B2: miR166:5'-IUU (dsRNA)
RNA 1: UCGGACCAGGCUUCAUCCCCC
RNA 2: GAUUCCCUUGAAGCUUGGUCCGGAUUA
modifications: 5-iodoU at 3,4 of strand 2
B2: binds (SDN1 wild type [2]; [4]).

GAUUCCCUUGAAGCUUGGUCCGGAUUA (ssRNA, 5-iodoU at 3,4) [5'-IUU RNA]: binds (SDN1 wild type [2]; label: 32P, single strand).
